Measured values taken from paper PMC12753827 (Nature Communications, 2025).

Target: the molecule itself
Assay: SEC

B1: CeLGR-ΔC (C. elegans leucine-rich-repeat-containing GPCR truncated after helix 8 at residue 712) (receptor)
chain: QNALSLAQTKHSCMALKAEDGEGCTCKQTKRYGQPECCCMGLIVSQLPTNLTADVGYLYLHNTSISVITPNFFDKFPSIRELEIDNSAHLEHIDGSSLSVLSKLRKLSVVKCPNLREISGKLLVNNTRIQNVILKNNGLATMPSLRMTDAHHVLLDRIDLSGNKIKFISDSKVRNVKARTVVLSENKLIEISGYAFTESQFLKLKLNNNPDLRSLSVDAFKNMAGLQTLDLSHTSIDTLPINGLKKLKTLILNDVPTLKSLPSVLSFTDLETAHFTYPHHCCLFKYVDDVTMNDNGKYQRNAKEIHKRICDKREQQKVARRRKRETSGIDFLDMLLKEWTDNSTYTGPDDADDDELPPFVEIGAEPCQSIGEEVQKYYSNITCYPQPDALNPCENIVGYPFLRIAVWVVCLAAIVGNIIVWALLGIVYEKRMRMHYLYMINMSVADMVTGIYLAVLAIADAKMSDEYYRHAVWWQTGWGCRAAGFLAVFASELGIISMFLIAFEMSYNTRQSFRGRRLSPKVGVLLMIGGWLFAIIMAILPWFDVSSYSESSVCLPLRAATIFDKSYLIFGLSFNFLAFAAMALSYGFIVKMLKENETREEDRALITKMTVLVVTDLICWFPTLFFGFTATIGFPLLSLSSAKFVLVFFFPINAFANPFLYVFFTEVIQHRVRSKTLPVIRR
For B1, the “stoichiometry N” value was 2.
